Test results: EP3088890B1 (Chugai Seiyaku Kabushiki Kaisha, dated 2020)

B1: GT607 antibody (antibody, IgG1, V domains shown)
VH: EVQLVESGGDVVRPGGSLKLSCAASGFTFSSYGMSWVRQLPDKRLEWVASVGNGGSYRYYPENLKGRFTISRDNTKNTLYLQISGLKSEDTAIYYCARRGAFPYFDVWGAGTTVTVSS
VL: QIVLTQSPAIMSASPGEKVTLACSASSSVTYMHWYQQKSGTSPKRWIYETSKLASGVPPRFSGSGSGTSYSLTISTMEAEDAATYYCQQWSSNPLTFGAGTKLELKR
B2: GT165 antibody (antibody, IgG1, V domains shown)
VH: QVQLQQSGAELVGPGASVKISCKAFGYTFTNHHINWVKQRPGQGLDWIGYINPYNDYTNYNQKFKGKATLTVDKSSSTAYMELSSLTSEDSAVYYCARSDPAWFAYWGQGTLVTVSA
VL: DIQMTQSPSSLSASLGGKVTITCKASQDINKNIAWYQHKPGKGPRLLIWYTYTLQPGIPSRFSGSGSGRDYSFSISNLEPEDIATYYCLQYDNLPFTFGTGTKLEIKR

Each binder was assayed against T1, AW3, C-terminally His-tagged recombinant product of positions 1 to 218 of GPC3 (human, UniProt P51654 25-218) (assay: Western blot, pellets of CHO cells expressing the product).
T1 construct: Expressed in CHO cells, cell pellets used in Western blot; The range is as printed and starts at position 1; not shown: C-terminal His tag
T1 sequence (P51654 25-218): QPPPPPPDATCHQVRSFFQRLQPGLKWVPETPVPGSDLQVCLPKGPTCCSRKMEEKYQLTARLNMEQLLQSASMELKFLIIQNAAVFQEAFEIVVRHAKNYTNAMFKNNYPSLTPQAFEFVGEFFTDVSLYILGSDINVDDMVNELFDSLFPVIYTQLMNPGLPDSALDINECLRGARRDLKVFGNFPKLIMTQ

Q: Does B1 bind?
A: no binding

Q: Does B2 bind?
A: no binding

The binders below were run against T2, AW2, C-terminally His-tagged recombinant product of positions 1 to 196 of GPC3 (human, UniProt P51654 25-196) in the same assay as above.
T2 construct: Expressed in CHO cells, cell pellets used in Western blot; The range is as printed and starts at position 1; also called AW2 (1-196); not shown: C-terminal His tag
T2 sequence (P51654 25-196): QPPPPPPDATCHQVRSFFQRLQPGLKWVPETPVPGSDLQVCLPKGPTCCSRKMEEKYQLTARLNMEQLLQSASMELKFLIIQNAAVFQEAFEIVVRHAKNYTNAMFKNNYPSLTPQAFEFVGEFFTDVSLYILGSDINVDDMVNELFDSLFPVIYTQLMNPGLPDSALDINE

Q: Does B1 bind?
A: no binding

Q: Does B2 bind?
A: no binding

Molecular target: T3, GPC3 peptide 321-350 (SEQ ID NO: 17) (human)
T3 construct: Synthetic 30-residue peptide of GPC3
T3 peptide: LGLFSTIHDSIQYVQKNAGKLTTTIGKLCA
Experiment: peptide ELISA, peptide on plate

Q: Does B1 bind?
A: no binding (tested: 2 µg/mL)

Q: Does B2 bind?
A: no binding (tested: 2 µg/mL)

Molecular target: T4, GPC3 peptide 551-580 (SEQ ID NO: 29) (human)
T4 construct: Synthetic 30-residue peptide of GPC3
T4 peptide: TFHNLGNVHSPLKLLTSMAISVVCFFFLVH
Experiment: peptide ELISA, peptide on plate

Q: Does B1 bind?
A: no binding (tested: 2 µg/mL)

Q: Does B2 bind?
A: no binding (tested: 2 µg/mL)

Molecular target: T5, GPC3 peptide 121-150 (SEQ ID NO: 7) (human)
T5 construct: Synthetic 30-residue peptide of GPC3
T5 peptide: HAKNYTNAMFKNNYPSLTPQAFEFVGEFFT
Experiment: peptide ELISA, peptide on plate

Q: Does B1 bind?
A: no binding (tested: 2 µg/mL)

Q: Does B2 bind?
A: no binding (tested: 2 µg/mL)

Molecular target: T6, GPC3 peptide 361-390 (SEQ ID NO: 19) (human)
T6 construct: Synthetic 30-residue peptide of GPC3
T6 peptide: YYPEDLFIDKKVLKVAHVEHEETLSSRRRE
Experiment: peptide ELISA, peptide on plate

Q: Does B1 bind?
A: no binding (tested: 2 µg/mL)

Q: Does B2 bind?
A: no binding (tested: 2 µg/mL)

Molecular target: T7, GPC3 peptide 381-410 (SEQ ID NO: 20) (human)
T7 construct: Synthetic 30-residue peptide of GPC3
T7 peptide: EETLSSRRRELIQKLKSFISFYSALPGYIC
Experiment: peptide ELISA, peptide on plate

Q: Does B1 bind?
A: no binding (tested: 2 µg/mL)

Q: Does B2 bind?
A: no binding (tested: 2 µg/mL)

Molecular target: T8, GPC3 peptide 461-490 (SEQ ID NO: 24) (human)
T8 construct: Synthetic 30-residue peptide of GPC3
T8 peptide: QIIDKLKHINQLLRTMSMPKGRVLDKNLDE
Experiment: peptide ELISA, peptide on plate

Q: Does B1 bind?
A: no binding (tested: 2 µg/mL)

Q: Does B2 bind?
A: no binding (tested: 2 µg/mL)

Molecular target: T9, GPC3 peptide 401-430 (SEQ ID NO: 21) (human)
T9 construct: Synthetic 30-residue peptide of GPC3
T9 peptide: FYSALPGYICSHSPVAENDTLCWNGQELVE
Experiment: peptide ELISA, peptide on plate

Q: Does B1 bind?
A: no binding (tested: 2 µg/mL)

Q: Does B2 bind?
A: no binding (tested: 2 µg/mL)

Molecular target: T10, GPC3 peptide 81-110 (SEQ ID NO: 5) (human)
T10 construct: Synthetic 30-residue peptide of GPC3
T10 peptide: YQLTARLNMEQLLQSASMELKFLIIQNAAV
Experiment: peptide ELISA, peptide on plate

Q: Does B1 bind?
A: no binding (tested: 2 µg/mL)

Q: Does B2 bind?
A: no binding (tested: 2 µg/mL)

Molecular target: T11, GPC3 peptide 101-130 (SEQ ID NO: 6) (human)
T11 construct: Synthetic 30-residue peptide of GPC3
T11 peptide: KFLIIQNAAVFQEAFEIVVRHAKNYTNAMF
Experiment: peptide ELISA, peptide on plate

Q: Does B1 bind?
A: no binding (tested: 2 µg/mL)

Q: Does B2 bind?
A: no binding (tested: 2 µg/mL)

Molecular target: T12, GPC3 peptide 161-190 (SEQ ID NO: 9) (human)
T12 construct: Synthetic 30-residue peptide of GPC3
T12 peptide: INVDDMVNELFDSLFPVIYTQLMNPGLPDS
Experiment: peptide ELISA, peptide on plate

Q: Does B1 bind?
A: no binding (tested: 2 µg/mL)

Q: Does B2 bind?
A: no binding (tested: 2 µg/mL)

Molecular target: T13, GPC3 peptide 21-50 (SEQ ID NO: 2) (human)
T13 construct: Synthetic 30-residue peptide of GPC3
T13 peptide: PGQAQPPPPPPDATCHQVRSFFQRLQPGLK
Experiment: peptide ELISA, peptide on plate

Q: Does B1 bind?
A: no binding (tested: 2 µg/mL)

Q: Does B2 bind?
A: no binding (tested: 2 µg/mL)

Molecular target: T14, GPC3 peptide 301-330 (SEQ ID NO: 16) (human)
T14 construct: Synthetic 30-residue peptide of GPC3
T14 peptide: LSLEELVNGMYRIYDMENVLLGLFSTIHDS
Experiment: peptide ELISA, peptide on plate

Q: Does B1 bind?
A: no binding (tested: 2 µg/mL)

Q: Does B2 bind?
A: no binding (tested: 2 µg/mL)

Molecular target: T15, GPC3 peptide 221-250 (SEQ ID NO: 12) (human)
T15 construct: Synthetic 30-residue peptide of GPC3
T15 peptide: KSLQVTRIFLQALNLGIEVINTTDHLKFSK
Experiment: peptide ELISA, peptide on plate

Q: Does B1 bind?
A: no binding (tested: 2 µg/mL)

Q: Does B2 bind?
A: no binding (tested: 2 µg/mL)

Molecular target: T16, GPC3 peptide 241-270 (SEQ ID NO: 13) (human)
T16 construct: Synthetic 30-residue peptide of GPC3
T16 peptide: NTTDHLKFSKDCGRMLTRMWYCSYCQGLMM
Experiment: peptide ELISA, peptide on plate

Q: Does B1 bind?
A: no binding (tested: 2 µg/mL)

Q: Does B2 bind?
A: no binding (tested: 2 µg/mL)

Molecular target: T17, GPC3 peptide 261-290 (SEQ ID NO: 14) (human)
T17 construct: Synthetic 30-residue peptide of GPC3
T17 peptide: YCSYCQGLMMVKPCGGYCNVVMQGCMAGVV
Experiment: peptide ELISA, peptide on plate

Q: Does B1 bind?
A: no binding (tested: 2 µg/mL)

Q: Does B2 bind?
A: no binding (tested: 2 µg/mL)

Molecular target: T18, GPC3 peptide 281-310 (SEQ ID NO: 15) (human)
T18 construct: Synthetic 30-residue peptide of GPC3
T18 peptide: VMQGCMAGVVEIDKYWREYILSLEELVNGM
Experiment: peptide ELISA, peptide on plate

Q: Does B1 bind?
A: no binding (tested: 2 µg/mL)

Q: Does B2 bind?
A: no binding (tested: 2 µg/mL)

Molecular target: T19, GPC3 peptide 441-470 (SEQ ID NO: 23) (human)
T19 construct: Synthetic 30-residue peptide of GPC3
T19 peptide: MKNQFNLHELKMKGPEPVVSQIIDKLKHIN
Experiment: peptide ELISA, peptide on plate

Q: Does B1 bind?
A: no binding (tested: 2 µg/mL)

Q: Does B2 bind?
A: no binding (tested: 2 µg/mL)

Molecular target: T20, GPC3 peptide 1-30 (SEQ ID NO: 1) (human)
T20 construct: Synthetic 30-residue peptide of GPC3
T20 peptide: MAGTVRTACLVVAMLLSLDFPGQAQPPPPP
Experiment: peptide ELISA, peptide on plate

Q: Does B1 bind?
A: no binding (tested: 2 µg/mL)

Q: Does B2 bind?
A: no binding (tested: 2 µg/mL)

Molecular target: T21, GPC3 peptide 41-70 (SEQ ID NO: 3) (human)
T21 construct: Synthetic 30-residue peptide of GPC3
T21 peptide: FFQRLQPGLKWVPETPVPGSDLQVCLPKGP
Experiment: peptide ELISA, peptide on plate

Q: Does B1 bind?
A: no binding (tested: 2 µg/mL)

Q: Does B2 bind?
A: no binding (tested: 2 µg/mL)

Molecular target: T22, GPC3 peptide 181-210 (SEQ ID NO: 10) (human)
T22 construct: Synthetic 30-residue peptide of GPC3
T22 peptide: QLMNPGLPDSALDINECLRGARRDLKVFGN
Experiment: peptide ELISA, peptide on plate

Q: Does B1 bind?
A: no binding (tested: 2 µg/mL)

Q: Does B2 bind?
A: no binding (tested: 2 µg/mL)

Molecular target: T23, GPC3 peptide 541-570 (SEQ ID NO: 28) (human)
T23 construct: Synthetic 30-residue peptide of GPC3
T23 peptide: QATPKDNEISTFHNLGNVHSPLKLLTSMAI
Experiment: peptide ELISA, peptide on plate

Q: Does B1 bind?
A: no binding (tested: 2 µg/mL)

Q: Does B2 bind?
A: no binding (tested: 2 µg/mL)

Molecular target: T24, GPC3 peptide 61-90 (SEQ ID NO: 4) (human)
T24 construct: Synthetic 30-residue peptide of GPC3
T24 peptide: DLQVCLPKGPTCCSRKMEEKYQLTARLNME
Experiment: peptide ELISA, peptide on plate

Q: Does B1 bind?
A: no binding (tested: 2 µg/mL)

Q: Does B2 bind?
A: no binding (tested: 2 µg/mL)

Molecular target: T25, GPC3 peptide 421-450 (SEQ ID NO: 22) (human)
T25 construct: Synthetic 30-residue peptide of GPC3
T25 peptide: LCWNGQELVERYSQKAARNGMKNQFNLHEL
Experiment: peptide ELISA, peptide on plate

Q: Does B1 bind?
A: no binding (tested: 2 µg/mL)

Q: Does B2 bind?
A: no binding (tested: 2 µg/mL)

Molecular target: T26, GPC3 peptide 201-230 (SEQ ID NO: 11) (human)
T26 construct: Synthetic 30-residue peptide of GPC3
T26 peptide: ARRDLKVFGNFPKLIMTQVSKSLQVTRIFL
Experiment: peptide ELISA, peptide on plate

Q: Does B1 bind?
A: no binding (tested: 2 µg/mL)

Q: Does B2 bind?
A: no binding (tested: 2 µg/mL)

Molecular target: T27, GPC3 peptide 501-530 (SEQ ID NO: 26) (human)
T27 construct: Synthetic 30-residue peptide of GPC3
T27 peptide: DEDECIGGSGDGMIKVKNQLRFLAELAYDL
Experiment: peptide ELISA, peptide on plate

Q: Does B1 bind?
A: no binding (tested: 2 µg/mL)

Q: Does B2 bind?
A: no binding (tested: 2 µg/mL)

Molecular target: T28, GPC3 peptide 481-510 (SEQ ID NO: 25) (human)
T28 construct: Synthetic 30-residue peptide of GPC3
T28 peptide: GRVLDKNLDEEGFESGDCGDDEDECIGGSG
Experiment: peptide ELISA, peptide on plate

Q: Does B1 bind?
A: no binding (tested: 2 µg/mL)

Q: Does B2 bind?
A: no binding (tested: 2 µg/mL)

Molecular target: T29, GPC3 peptide 521-550 (SEQ ID NO: 27) (human)
T29 construct: Synthetic 30-residue peptide of GPC3
T29 peptide: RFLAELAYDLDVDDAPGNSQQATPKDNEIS
Experiment: peptide ELISA, peptide on plate

Q: Does B1 bind?
A: no binding (tested: 2 µg/mL)

Q: Does B2 bind?
A: no binding (tested: 2 µg/mL)
